Experimental data reported in publication PMC7895427, “A stapled peptide mimetic of the CtIP tetramerization motif interferes with double-strand break repair and replication fork protection” (Science Advances, 2021).
Positions of bridges follow the written chain, without caps; N, C: chain ends. Non-standard residues stand in square brackets, D forms with d. *: point of attachment. FITC = O=C1OC2(c3ccc(O)cc3Oc3cc(O)ccc32)c2ccc(NC(=S)*)cc21; R8 = C=CCCCCCC[C@@](C)(N)C(=O)O; S5 = C=CCCC[C@](C)(N)C(=O)O

B5: CtIP-NTD^18–145 (domain or fragment, human, UniProt Q99708 18-145, looked up)
chain: SDFKDLWTKLKECHDREVQGLQVKVTKLKQERILDAQRLEEFFTKNQQLREQQKVLHETIKVLEDRLRAGLCDRCAVTEEHMRKKQQEFENIRQQNLKLITELMNERNTLQEENKKLSEQLQQKIEND
notes: not shown: His6, N-terminal, cleaved; MBP, N-terminal, cleaved

What was measured:
[1] = target: the molecule itself; assay: cell-based or functional assay
[2] = target: the molecule itself; assay: SEC-MALS; full-length CtIP 10 μM with 0, 20 or 250 μM peptide; 1 hour on ice, then 30 min at RT; Superose 6 10/300 in 20 mM tris (pH 8.0), 200 mM NaCl, 0.5 mM TCEP
CtIP-NTD^18–145 = target: B5; assay: fluorescence polarisation; FITC-labeled peptide (1 mg/ml stock diluted 1:10,000) mixed with serially diluted CtIP-NTD; 20 mM tris (pH 8.0), 150 mM NaCl; 10 min at RT; nonlinear regression with Hill slope; conditions: both partners purified
[3] = target: the molecule itself; assay: cross-linking; 1 or 2 μg recombinant protein with or without peptide in PBS, 30 min at RT; 100 μM disuccinimidyl suberate, 30 min at RT; SDS-PAGE and staining

B1: full-length recombinant CtIP wild type (natural protein, human, UniProt Q99708 1-897, looked up)
chain: MNISGSSCGSPNSADTSSDFKDLWTKLKECHDREVQGLQVKVTKLKQERILDAQRLEEFFTKNQQLREQQKVLHETIKVLEDRLRAGLCDRCAVTEEHMRKKQQEFENIRQQNLKLITELMNERNTLQEENKKLSEQLQQKIENDQQHQAAELECEEDVIPDSPITAFSFSGVNRLRRKENPHVRYIEQTHTKLEHSVCANEMRKVSKSSTHPQHNPNENEILVADTYDQSQSPMAKAHGTSSYTPDKSSFNLATVVAETLGLGVQEESETQGPMSPLGDELYHCLEGNHKKQPFEESTRNTEDSLRFSDSTSKTPPQEELPTRVSSPVFGATSSIKSGLDLNTSLSPSLLQPGKKKHLKTLPFSNTCISRLEKTRSKSEDSALFTHHSLGSEVNKIIIQSSNKQILINKNISESLGEQNRTEYGKDSNTDKHLEPLKSLGGRTSKRKKTEEESEHEVSCPQASFDKENAFPFPMDNQFSMNGDCVMDKPLDLSDRFSAIQRQEKSQGSETSKNKFRQVTLYEALKTIPKGFSSSRKASDGNCTLPKDSPGEPCSQECIILQPLNKCSPDNKPSLQIKEENAVFKIPLRPRESLETENVLDDIKSAGSHEPIKIQTRSDHGGCELASVLQLNPCRTGKIKSLQNNQDVSFENIQWSIDPGADLSQYKMDVTVIDTKDGSQSKLGGETVDMDCTLVSETVLLKMKKQEQKGEKSSNEERKMNDSLEDMFDRTTHEEYESCLADSFSQAADEEEELSTATKKLHTHGDKQDKVKQKAFVEPYFKGDERETSLQNFPHIEVVRKKEERRKLLGHTCKECEIYYADMPAEEREKKLASCSRHRFRYIPPNTPENFWEVGFPSTQTCMERGYIKEDLDPCPRPKRRQPYNAIFSPKGKEQKT
notes: human CtIP, full length (amino acids 1 to 897); also called CtIP-wt
HR frequency (percentage of GFP-positive U2OS EGFP-HR reporter cells after I-SceI) with 10 μM SP^18–28 for 24 hours [1]: ~3 fold decrease | stoichiometry N [2]: 4

B2: full-length recombinant CtIP-L27E (natural protein, human, UniProt Q99708 1-897, looked up)
chain: MNISGSSCGSPNSADTSSDFKDLWTKEKECHDREVQGLQVKVTKLKQERILDAQRLEEFFTKNQQLREQQKVLHETIKVLEDRLRAGLCDRCAVTEEHMRKKQQEFENIRQQNLKLITELMNERNTLQEENKKLSEQLQQKIENDQQHQAAELECEEDVIPDSPITAFSFSGVNRLRRKENPHVRYIEQTHTKLEHSVCANEMRKVSKSSTHPQHNPNENEILVADTYDQSQSPMAKAHGTSSYTPDKSSFNLATVVAETLGLGVQEESETQGPMSPLGDELYHCLEGNHKKQPFEESTRNTEDSLRFSDSTSKTPPQEELPTRVSSPVFGATSSIKSGLDLNTSLSPSLLQPGKKKHLKTLPFSNTCISRLEKTRSKSEDSALFTHHSLGSEVNKIIIQSSNKQILINKNISESLGEQNRTEYGKDSNTDKHLEPLKSLGGRTSKRKKTEEESEHEVSCPQASFDKENAFPFPMDNQFSMNGDCVMDKPLDLSDRFSAIQRQEKSQGSETSKNKFRQVTLYEALKTIPKGFSSSRKASDGNCTLPKDSPGEPCSQECIILQPLNKCSPDNKPSLQIKEENAVFKIPLRPRESLETENVLDDIKSAGSHEPIKIQTRSDHGGCELASVLQLNPCRTGKIKSLQNNQDVSFENIQWSIDPGADLSQYKMDVTVIDTKDGSQSKLGGETVDMDCTLVSETVLLKMKKQEQKGEKSSNEERKMNDSLEDMFDRTTHEEYESCLADSFSQAADEEEELSTATKKLHTHGDKQDKVKQKAFVEPYFKGDERETSLQNFPHIEVVRKKEERRKLLGHTCKECEIYYADMPAEEREKKLASCSRHRFRYIPPNTPENFWEVGFPSTQTCMERGYIKEDLDPCPRPKRRQPYNAIFSPKGKEQKT
notes: human CtIP, full length (amino acids 1 to 897), with L27E; L27E was introduced by site-directed mutagenesis of the 3xFLAG-CtIP-wt expression vector
stoichiometry N [2]: 2

{FITC}-S[R8]FKDLWT[S5]LKECH-NH2 (staple 2-9) [FITC-labeled SP^18–31 (hydrocarbon-stapled peptide spanning the entire CtIP tetramerization motif)]
fold higher Kd than that of SP^18–28 on the same target (CtIP-NTD^18–145): ~100 fold

{FITC}-S[R8]FKDLWT[S5]LK-NH2 (staple 2-9) [FITC-labeled SP^18–28 (hydrocarbon-stapled peptide of CtIP residues 18 to 28)]
Kd (CtIP-NTD^18–145): 209 nM

B3: CtIP-NTD^32–145 (domain or fragment, human, UniProt Q99708 32-145, looked up)
chain: DREVQGLQVKVTKLKQERILDAQRLEEFFTKNQQLREQQKVLHETIKVLEDRLRAGLCDRCAVTEEHMRKKQQEFENIRQQNLKLITELMNERNTLQEENKKLSEQLQQKIEND
notes: also called N-terminal coiled-coil domain; not shown: His6, N-terminal, cleaved; MBP, N-terminal, cleaved
stoichiometry N [3]: 2

B4: CtIP-NTD^(18–145, L27E) (domain or fragment, human, UniProt Q99708 18-145, looked up)
chain: SDFKDLWTKEKECHDREVQGLQVKVTKLKQERILDAQRLEEFFTKNQQLREQQKVLHETIKVLEDRLRAGLCDRCAVTEEHMRKKQQEFENIRQQNLKLITELMNERNTLQEENKKLSEQLQQKIEND
notes: as for B5
stoichiometry N [3]: 2

B5
stoichiometry N [3]: 4
